According to patent US20180319872A1 (UNIVERSITY OF MARYLAND BALTIMORE, published 2018):

Legend:
[1] = target: T1, Clostridium difficile toxin B (TcdB) (Clostridium difficile, UniProt P18177 2-2366); assay: binding kinetics, method not stated
T1 construct: also called TxB

[2] = target: T1, Clostridium difficile toxin B (TcdB); assay: ELISA on plates coated with 1 ug/ml TcdB (TxB), OD450
[3] = target: T2, Clostridium difficile toxin A (TcdA) (Clostridium difficile, UniProt P16154 1-2710); assay: binding kinetics, method not stated
T2 construct: also called TxA; rTcdA
T2 sequence (P16154 whole entry): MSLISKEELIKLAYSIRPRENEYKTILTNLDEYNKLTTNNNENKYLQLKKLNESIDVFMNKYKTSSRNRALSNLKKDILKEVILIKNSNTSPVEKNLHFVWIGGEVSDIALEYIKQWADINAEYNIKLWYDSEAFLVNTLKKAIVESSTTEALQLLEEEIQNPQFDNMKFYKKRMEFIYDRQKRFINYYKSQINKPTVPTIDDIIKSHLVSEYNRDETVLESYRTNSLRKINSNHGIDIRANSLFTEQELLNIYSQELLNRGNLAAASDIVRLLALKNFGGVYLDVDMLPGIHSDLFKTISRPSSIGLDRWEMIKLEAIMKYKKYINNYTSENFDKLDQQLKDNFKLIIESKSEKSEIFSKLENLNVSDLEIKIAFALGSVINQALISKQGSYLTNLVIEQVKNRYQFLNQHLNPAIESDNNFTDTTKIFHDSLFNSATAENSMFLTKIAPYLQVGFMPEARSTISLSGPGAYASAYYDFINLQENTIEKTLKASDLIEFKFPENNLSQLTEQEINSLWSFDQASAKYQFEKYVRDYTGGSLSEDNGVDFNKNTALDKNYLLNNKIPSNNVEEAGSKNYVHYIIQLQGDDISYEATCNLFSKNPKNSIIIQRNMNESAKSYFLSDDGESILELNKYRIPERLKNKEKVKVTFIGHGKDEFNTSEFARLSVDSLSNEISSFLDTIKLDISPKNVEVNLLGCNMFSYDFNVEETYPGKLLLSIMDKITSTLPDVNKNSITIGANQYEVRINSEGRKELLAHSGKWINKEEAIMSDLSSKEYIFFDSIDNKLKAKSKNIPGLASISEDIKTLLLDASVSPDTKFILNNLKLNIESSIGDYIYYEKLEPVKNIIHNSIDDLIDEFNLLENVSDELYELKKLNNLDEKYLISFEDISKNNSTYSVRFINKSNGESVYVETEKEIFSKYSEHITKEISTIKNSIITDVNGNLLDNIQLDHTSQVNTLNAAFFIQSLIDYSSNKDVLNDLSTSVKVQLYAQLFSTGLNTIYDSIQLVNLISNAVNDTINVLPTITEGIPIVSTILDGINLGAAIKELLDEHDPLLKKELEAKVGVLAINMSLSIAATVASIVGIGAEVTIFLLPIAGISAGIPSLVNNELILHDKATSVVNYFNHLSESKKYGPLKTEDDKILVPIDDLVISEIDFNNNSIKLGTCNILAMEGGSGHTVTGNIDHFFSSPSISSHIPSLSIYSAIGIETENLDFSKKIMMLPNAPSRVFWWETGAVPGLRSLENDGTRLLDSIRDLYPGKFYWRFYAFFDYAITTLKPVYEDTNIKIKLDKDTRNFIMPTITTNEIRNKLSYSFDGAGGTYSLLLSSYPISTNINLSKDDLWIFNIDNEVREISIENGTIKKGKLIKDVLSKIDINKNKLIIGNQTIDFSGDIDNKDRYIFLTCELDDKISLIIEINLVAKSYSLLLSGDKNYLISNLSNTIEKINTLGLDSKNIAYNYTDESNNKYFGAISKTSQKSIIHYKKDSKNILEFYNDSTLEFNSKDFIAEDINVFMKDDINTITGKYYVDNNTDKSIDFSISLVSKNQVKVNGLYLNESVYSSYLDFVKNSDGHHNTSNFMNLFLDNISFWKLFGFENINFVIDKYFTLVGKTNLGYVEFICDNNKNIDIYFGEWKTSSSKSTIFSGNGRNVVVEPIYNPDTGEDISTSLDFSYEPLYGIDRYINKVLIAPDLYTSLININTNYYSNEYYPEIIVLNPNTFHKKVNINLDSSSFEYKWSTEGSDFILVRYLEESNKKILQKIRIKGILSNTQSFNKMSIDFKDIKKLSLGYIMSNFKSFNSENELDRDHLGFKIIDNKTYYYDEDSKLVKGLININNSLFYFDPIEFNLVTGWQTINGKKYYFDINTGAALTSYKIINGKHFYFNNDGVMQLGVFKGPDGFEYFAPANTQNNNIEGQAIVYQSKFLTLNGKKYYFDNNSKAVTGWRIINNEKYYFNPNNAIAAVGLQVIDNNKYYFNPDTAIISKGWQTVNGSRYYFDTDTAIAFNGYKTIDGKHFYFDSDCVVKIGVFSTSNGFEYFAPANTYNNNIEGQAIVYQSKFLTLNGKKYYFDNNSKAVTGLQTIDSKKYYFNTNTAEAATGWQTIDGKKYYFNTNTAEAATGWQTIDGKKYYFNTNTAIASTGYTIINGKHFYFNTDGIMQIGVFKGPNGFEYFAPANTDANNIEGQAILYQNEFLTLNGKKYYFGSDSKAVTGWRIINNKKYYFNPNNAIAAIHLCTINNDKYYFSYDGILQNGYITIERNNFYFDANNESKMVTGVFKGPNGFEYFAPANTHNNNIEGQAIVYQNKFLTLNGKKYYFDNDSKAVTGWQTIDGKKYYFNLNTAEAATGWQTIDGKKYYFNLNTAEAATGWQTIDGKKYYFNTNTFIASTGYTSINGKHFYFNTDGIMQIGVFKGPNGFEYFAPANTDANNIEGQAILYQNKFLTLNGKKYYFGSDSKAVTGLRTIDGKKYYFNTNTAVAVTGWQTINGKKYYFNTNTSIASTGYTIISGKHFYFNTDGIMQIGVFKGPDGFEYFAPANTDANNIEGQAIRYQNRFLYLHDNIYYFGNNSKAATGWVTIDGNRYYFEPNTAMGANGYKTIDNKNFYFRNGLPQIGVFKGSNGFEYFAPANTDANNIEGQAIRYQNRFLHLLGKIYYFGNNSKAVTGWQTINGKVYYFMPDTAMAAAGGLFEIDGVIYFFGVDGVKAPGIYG

T1 sequence (P18177 2-2366 limits assumed): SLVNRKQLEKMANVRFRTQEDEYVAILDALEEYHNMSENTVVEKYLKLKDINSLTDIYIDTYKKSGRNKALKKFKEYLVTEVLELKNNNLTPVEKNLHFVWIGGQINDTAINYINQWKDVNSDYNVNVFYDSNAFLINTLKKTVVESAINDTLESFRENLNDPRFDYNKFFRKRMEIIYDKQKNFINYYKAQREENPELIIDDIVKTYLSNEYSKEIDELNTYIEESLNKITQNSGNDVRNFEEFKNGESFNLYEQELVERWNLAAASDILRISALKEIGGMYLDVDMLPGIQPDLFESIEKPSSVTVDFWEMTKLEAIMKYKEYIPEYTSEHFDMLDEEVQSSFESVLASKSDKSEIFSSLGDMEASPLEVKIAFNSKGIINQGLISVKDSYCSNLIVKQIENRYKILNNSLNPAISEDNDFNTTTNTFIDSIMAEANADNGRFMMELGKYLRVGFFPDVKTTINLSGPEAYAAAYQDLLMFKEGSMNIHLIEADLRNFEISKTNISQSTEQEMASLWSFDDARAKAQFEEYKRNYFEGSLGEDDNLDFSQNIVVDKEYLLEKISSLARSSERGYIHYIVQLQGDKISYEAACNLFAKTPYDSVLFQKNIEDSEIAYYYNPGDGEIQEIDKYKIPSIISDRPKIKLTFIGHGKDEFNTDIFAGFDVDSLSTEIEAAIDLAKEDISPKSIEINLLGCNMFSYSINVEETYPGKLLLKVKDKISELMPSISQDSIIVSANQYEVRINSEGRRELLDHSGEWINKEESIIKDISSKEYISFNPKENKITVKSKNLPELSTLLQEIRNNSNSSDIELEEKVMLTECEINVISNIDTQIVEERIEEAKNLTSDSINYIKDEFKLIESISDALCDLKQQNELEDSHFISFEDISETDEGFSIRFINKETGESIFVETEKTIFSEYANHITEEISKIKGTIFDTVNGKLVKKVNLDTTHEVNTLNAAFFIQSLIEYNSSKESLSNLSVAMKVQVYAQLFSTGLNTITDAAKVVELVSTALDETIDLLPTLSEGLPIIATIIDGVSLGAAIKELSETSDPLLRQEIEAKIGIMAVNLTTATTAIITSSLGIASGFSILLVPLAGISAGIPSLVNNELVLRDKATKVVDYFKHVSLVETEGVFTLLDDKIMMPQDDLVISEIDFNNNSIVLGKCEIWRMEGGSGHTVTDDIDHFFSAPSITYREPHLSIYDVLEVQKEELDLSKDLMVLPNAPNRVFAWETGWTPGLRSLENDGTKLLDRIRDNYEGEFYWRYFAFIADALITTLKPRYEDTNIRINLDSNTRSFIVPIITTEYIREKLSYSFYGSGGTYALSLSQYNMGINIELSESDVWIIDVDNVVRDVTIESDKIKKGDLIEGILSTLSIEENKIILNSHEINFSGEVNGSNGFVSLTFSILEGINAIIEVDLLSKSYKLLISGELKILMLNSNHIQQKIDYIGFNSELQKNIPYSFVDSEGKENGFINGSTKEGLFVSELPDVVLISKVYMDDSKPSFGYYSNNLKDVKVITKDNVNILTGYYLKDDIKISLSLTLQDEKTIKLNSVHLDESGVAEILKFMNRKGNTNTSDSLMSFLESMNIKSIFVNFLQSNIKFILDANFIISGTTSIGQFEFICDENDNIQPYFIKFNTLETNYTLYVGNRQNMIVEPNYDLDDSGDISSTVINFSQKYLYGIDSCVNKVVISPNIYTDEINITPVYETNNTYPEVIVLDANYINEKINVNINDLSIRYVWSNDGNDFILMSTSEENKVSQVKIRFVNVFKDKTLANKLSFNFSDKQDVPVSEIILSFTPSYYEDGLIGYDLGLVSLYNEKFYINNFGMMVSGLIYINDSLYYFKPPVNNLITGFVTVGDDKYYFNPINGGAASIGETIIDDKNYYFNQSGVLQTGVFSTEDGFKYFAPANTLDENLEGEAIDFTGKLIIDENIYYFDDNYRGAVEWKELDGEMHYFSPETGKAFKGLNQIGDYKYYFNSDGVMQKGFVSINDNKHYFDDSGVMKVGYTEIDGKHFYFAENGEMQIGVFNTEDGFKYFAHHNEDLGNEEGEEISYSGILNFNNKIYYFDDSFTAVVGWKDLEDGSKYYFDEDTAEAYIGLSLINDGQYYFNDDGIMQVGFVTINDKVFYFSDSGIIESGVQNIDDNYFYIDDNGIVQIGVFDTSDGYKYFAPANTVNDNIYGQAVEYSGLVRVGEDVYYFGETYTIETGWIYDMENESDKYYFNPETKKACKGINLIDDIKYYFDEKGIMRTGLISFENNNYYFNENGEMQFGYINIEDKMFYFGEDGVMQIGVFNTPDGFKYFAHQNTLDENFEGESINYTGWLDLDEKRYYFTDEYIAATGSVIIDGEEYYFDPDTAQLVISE

| Binder | Kd [1] [pM] | koff [1] [s⁻¹] | kon [1] [M⁻¹ s⁻¹] | EC50 (read off the curve) [2] [µg/mL] | Kd [3] [pM] | koff [3] [s⁻¹] | kon [3] [M⁻¹ s⁻¹] |
| --- | --- | --- | --- | --- | --- | --- | --- |
| VHH peptide monomer E3 (VHH, also called VHH E3) VHH: QVQLVESGGGLVQTGGSLRLSCASSGSIAGFETVTWSRQAPGKSLQWVASMTKTNNEIYSDSVKGRFIISRDNAKNTVYLQMNSLKPEDTGVYFCKGPELRGQGIQVTVSS | 30 | 9.4e-05 | 2.95e+06 | ~0.02 | – | – | – |
| VHH peptide monomer AH3 (VHH, also called VHH AH3) VHH: QVQLVETGGLVQPGGSLRLSCAASGFTLDYSSIGWFRQAPGKEREGVSCISSSGDSTKYADSVKGRFTTSRDNAKNTVYLQMNSLKPDDTAVYYCAAFRATMCGVFPLSPYGKDDWGKGTLVTVSS | – | – | – | – | 32000 | 0.00071 | 22000 |
| VHH peptide monomer 5D (VHH) VHH: QVQLVESGGGLVQPGGSLRLSCEASGFTLDYYGIGWFRQPPGKEREAVSYISASARTILYADSVKGRFTISRDNAKNAVYLQMNSLKREDTAVYYCARRRFSASSVNRWLADDYDVWGRGTQVAVSS | 650 | 0.000994 | 1.52e+06 | – | – | – | – |
| ABAB binding agent (AH3/5D/AA6/E3, tetra-specific tetrameric VHH) (designed binder, also called r-ABAB; recombinant ABAB) QVQLVETGGGLVQPGGSLRLSCAASGFTLDYSSIGWFRQAPGKEREGVSCISSSGDSTKYADSVKGRFTTSRDNAKNTVYLQMNSLKPDDTAVYYCAAFRATMCGVFPLSPYGKDDWGKGTLVTVSSGGGGSGGGGSGGGGSQVQLVESGGGLVQPGGSLRLSCEASGFTLDYYGIGWFRQPPGKEREAVSYISASARTILYADSVKGRFTISRDNAKNAVYLQMNSLKREDTAVYYCARRRFSASSVNRWLADDYDVWGRGTQVAVSSGGGSGGGSGGGSGGGSQLQLVETGGGLVQPGGSLRLSCAASGFTFSDYVMTWVRQAPGKGPEWIATINTDGSTMRDDSTKGRFTISRDNAKNTLYLQMTSLKPEDTALYYCARGRVISASAIRGAVRGPGTQVTVSSGGGGSGGGGSGGGGSQVQLVESGGGLVQTGGSLRLSCASSGSIAGFETVTWSRQAPGKSLQWVASMTKTNNEIYSDSVKGRFIISRDNAKNTVYLQMNSLKPEDTGVYFCKGPELRGQGIQVTVSS | 2 | 3.57e-06 | 1.79e+06 | – | – | – | – |
